How the values were obtained:
His-Smc1α = target: T1, His-Smc1α (human, UniProt Q14683 1-1233); assay: pull-down; GST or GST-NudCL2 protein incubated with each of the purified His-tagged cohesin subunits from Sf9 cells; Western analysis; details: both partners purified
T1 construct: Full-length human SMC1A cloned by RT-PCR into pFastBac-HT A (His-tag vector); pFastBac-HT A is recalled to add the His tag at the N-terminus; also called His-tagged Smc1α; SMC1A; source: Sf9 insect cells (Bac-to-Bac baculovirus), purified with nickel-nitrilotriacetic acid beads
T1 sequence (looked up): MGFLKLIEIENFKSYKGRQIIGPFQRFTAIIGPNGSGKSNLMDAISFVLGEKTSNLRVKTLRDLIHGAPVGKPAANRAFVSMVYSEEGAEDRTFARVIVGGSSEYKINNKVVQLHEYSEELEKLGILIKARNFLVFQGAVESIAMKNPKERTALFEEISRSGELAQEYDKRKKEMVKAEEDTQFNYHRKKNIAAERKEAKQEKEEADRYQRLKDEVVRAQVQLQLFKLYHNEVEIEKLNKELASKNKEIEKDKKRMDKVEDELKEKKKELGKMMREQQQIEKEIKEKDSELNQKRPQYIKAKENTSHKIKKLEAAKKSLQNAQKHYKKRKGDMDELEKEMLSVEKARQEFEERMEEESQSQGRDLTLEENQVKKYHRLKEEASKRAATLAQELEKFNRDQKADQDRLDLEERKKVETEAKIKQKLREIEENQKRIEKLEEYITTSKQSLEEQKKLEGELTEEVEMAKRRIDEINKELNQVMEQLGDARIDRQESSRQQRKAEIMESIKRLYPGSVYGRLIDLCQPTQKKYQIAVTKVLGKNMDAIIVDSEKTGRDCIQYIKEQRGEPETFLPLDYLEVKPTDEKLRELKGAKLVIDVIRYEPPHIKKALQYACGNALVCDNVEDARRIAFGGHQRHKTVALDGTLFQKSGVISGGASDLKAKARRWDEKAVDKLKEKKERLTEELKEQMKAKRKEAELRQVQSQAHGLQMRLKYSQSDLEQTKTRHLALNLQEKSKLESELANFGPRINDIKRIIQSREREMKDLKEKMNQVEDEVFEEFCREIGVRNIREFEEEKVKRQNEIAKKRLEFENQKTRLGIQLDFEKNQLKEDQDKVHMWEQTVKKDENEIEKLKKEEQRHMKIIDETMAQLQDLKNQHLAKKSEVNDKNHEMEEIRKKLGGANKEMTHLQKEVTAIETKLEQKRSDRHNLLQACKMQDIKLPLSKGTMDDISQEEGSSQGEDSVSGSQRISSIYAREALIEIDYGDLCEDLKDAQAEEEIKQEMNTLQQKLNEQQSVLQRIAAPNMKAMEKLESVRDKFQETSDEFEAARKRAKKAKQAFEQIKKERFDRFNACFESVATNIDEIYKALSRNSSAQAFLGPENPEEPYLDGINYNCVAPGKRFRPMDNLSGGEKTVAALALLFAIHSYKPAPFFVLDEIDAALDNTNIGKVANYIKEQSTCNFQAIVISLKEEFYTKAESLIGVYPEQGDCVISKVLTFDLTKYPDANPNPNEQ

His-Smc3 = target: T2, His-Smc3 (human, UniProt Q9UQE7 1-1217); assay: as above; details: both partners purified
T2 construct: Full-length human SMC3 cloned by RT-PCR into pFastBac-HT A (His-tag vector); pFastBac-HT A is recalled to add the His tag at the N-terminus; also called His-tagged Smc3; source: Sf9 insect cells (Bac-to-Bac baculovirus), purified with nickel-nitrilotriacetic acid beads
T2 sequence (Q9UQE7 whole entry): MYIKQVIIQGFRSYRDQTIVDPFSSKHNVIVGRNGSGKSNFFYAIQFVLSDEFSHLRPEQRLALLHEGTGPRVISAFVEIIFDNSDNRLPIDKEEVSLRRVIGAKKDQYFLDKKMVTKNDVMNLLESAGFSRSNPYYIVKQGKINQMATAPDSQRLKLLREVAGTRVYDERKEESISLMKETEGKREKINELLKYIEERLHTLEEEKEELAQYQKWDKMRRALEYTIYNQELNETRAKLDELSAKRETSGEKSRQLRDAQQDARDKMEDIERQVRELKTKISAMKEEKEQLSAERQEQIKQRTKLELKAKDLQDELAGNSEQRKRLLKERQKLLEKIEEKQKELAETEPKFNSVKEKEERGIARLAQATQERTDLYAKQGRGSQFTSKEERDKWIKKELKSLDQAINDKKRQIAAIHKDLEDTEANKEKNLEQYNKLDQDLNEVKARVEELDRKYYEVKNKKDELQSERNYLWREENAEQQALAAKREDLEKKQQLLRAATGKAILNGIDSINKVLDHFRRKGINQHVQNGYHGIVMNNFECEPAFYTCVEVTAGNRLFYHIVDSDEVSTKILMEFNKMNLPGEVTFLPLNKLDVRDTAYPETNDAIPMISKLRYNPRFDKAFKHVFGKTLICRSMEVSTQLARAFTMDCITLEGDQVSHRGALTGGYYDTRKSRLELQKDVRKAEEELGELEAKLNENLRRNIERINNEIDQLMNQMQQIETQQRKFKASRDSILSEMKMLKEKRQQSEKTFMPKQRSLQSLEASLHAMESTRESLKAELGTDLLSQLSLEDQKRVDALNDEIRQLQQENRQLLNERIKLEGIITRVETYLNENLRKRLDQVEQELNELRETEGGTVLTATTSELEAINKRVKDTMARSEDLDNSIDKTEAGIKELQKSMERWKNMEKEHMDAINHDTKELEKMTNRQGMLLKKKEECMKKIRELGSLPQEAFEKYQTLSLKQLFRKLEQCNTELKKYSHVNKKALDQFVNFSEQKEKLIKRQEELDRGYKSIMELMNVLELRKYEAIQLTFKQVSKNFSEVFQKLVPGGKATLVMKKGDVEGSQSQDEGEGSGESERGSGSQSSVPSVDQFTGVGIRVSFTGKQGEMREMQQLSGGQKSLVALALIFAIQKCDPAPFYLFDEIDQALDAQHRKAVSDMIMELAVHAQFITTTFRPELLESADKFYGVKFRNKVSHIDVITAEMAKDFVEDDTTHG

- binding result (His-Smc1α): binds
- binding result (His-Smc3): binds
B1: GST-NudCL2 (natural protein, human, UniProt Q8WVJ2 1-157, looked up)
chain: MSAPFEERSGVVPCGTPWGQWYQTLEEVFIEVQVPPGTRAQDIQCGLQSRHVALSVGGREILKGKLFDSTIADEGTWTLEDRKMVRIVLTKTKRDAANCWTSLLESEYAADPWVQDQMQRKLTLERFQKENPGFDFSGAEISGNYTKGGPDFSNLEK
notes: NudCL2 (NudC-like protein 2), human; also called NudC-like protein 2; source: purified from bacteria

Reference: paper PMC6339671, “NudCL2 is an Hsp90 cochaperone to regulate sister chromatid cohesion by stabilizing cohesin subunits” (Cellular and Molecular Life Sciences: CMLS, 2018)
